Data taken from US20200079850A1.

Assays:
[1] = biological target: cynomolgus LAG3-Fc (accession # NC 022282.1) (cynomolgus monkey); assay: SPR (Biacore), antibody captured by anti-Flag, cyno LAG3-Fc as analyte, 25 C
[2] = biological target: cynomolgus LAG3 expressed on the cell surface (293T or CHO cells) (cynomolgus monkey); assay: flow cytometry, 293T cells expressing cyno LAG3
Chain of cynomolgus LAG3 expressed on the cell surface (293T or CHO cells) (cynomolgus monkey) (P18627 other isoform, or with tags, fused parts or gaps limits assumed, form in doubt): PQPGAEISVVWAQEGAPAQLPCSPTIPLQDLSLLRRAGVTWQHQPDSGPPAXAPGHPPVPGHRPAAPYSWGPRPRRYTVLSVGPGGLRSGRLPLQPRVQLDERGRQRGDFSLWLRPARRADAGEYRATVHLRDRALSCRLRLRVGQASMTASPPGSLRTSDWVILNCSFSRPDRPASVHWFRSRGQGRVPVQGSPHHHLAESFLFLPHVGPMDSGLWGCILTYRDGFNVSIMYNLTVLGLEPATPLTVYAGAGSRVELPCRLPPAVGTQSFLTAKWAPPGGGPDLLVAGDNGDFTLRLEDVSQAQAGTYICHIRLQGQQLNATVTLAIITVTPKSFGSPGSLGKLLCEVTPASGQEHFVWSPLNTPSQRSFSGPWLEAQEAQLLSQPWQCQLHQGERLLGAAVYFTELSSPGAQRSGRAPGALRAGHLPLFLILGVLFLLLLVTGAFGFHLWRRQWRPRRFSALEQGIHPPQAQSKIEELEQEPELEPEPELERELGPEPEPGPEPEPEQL

Chain of cynomolgus LAG3-Fc (accession # NC 022282.1) (cynomolgus monkey) (P18627 other isoform, or with tags, fused parts or gaps limits assumed, form in doubt): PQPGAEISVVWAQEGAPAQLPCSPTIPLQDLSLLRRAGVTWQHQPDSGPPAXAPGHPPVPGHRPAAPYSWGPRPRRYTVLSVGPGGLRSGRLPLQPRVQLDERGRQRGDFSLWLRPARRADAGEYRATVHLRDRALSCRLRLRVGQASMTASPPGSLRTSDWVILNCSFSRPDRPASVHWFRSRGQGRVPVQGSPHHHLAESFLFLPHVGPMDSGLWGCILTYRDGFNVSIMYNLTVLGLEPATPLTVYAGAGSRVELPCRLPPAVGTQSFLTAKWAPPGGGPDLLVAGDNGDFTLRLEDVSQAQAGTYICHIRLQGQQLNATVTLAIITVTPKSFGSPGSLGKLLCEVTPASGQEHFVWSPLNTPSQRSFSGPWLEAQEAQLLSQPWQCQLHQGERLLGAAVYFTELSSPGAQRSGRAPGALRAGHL

Kd [1]: 4.51 nM
koff [1]: 0.000641 s⁻¹
Kd [2]: 4.5 nM
B1: 421.61.4.5G11 (antibody, V domains shown)
VH: EVQLQQSGAELVRSGASVKLSCTASGFNIKDYYMHWVKQRPEQGLEWIAWIDPENGDTEYAPKFQGRATLTADTSSNTAYLHLSSLTSEDTAVYYCNAPDALDYWGQGTSVTVSS
VL: not shown
